Residue numbers refer to the chain shown, from its start. Names and notes keep the numbering of the source. Where a SMILES comes first, the peptide text is derived from it. The star is where a group is joined. Cbz = O=C(OCc1ccccc1)*; CH2F = FC*
B1: S144A: chimeric modified Caspase-9 polypeptide (protein)
chain: VDGFGDVGALEALRGNADLAYILSMEPCGHCLIINNVNFCRESGLRTRTGSNIDCEKLRRRFSSLHFMVEVKGDLTAKKMVLALLELARQDHGALDCCVVVILSHGCQASHLQFPGAVYGTDGCPVSVEKIVNIFNGTSCPSLGGKPKLFFIQACGGEQKDHGFEVASTSPEDESPGSNPEPDATPFQEGLRTFDQLDAISSLPTPSDIFVSYSTFPGFVSWRDPKSGSWYVETLDDIFEQWAHSEDLQSLLLRVANAVSVKGIYKQMPGCFNFLRKKLFFKTSASRA
B2: D330S: chimeric modified Caspase-9 polypeptide (protein)
chain: B1 chain with A12S, D198S
B3: S144D: chimeric modified Caspase-9 polypeptide (protein)
chain: B1 chain with A12D
B4: S196A: chimeric modified Caspase-9 polypeptide (protein)
chain: B1 chain with A12S, S64A
B5: D330N: chimeric modified Caspase-9 polypeptide (protein)
chain: B1 chain with A12S, D198N
B6: D330E: chimeric modified Caspase-9 polypeptide (protein)
chain: B1 chain with A12S, D198E
B7: S196D: chimeric modified Caspase-9 polypeptide (protein)
chain: B1 chain with A12S, S64D
B8: D330V: chimeric modified Caspase-9 polypeptide (protein)
chain: B1 chain with A12S, D198V
B9: F404Y: chimeric modified Caspase-9 polypeptide (protein)
chain: B1 chain with A12S, F272Y
B10: D330G: chimeric modified Caspase-9 polypeptide (protein)
chain: B1 chain with A12S, D198G
B11: S183A: chimeric modified Caspase-9 polypeptide (protein)
chain: B1 chain with A12S, S51A
B12: F319W: chimeric modified Caspase-9 polypeptide (protein, UniProt P55211 1-416, looked up, variant F319W)
chain: MDEADRRLLRRCRLRLVEELQVDQLWDALLSRELFRPHMIEDIQRAGSGSRRDQARQLIIDLETRGSQALPLFISCLEDTGQDMLASFLRTNRQAAKLSKPTLENLTPVVLRPEIRKPEVLRPETPRPVDIGSGGFGDVGALESLRGNADLAYILSMEPCGHCLIINNVNFCRESGLRTRTGSNIDCEKLRRRFSSLHFMVEVKGDLTAKKMVLALLELAQQDHGALDCCVVVILSHGCQASHLQFPGAVYGTDGCPVSVEKIVNIFNGTSCPSLGGKPKLFFIQACGGEQKDHGFEVASTSPEDESPGSNPEPDATPWQEGLRTFDQLDAISSLPTPSDIFVSYSTFPGFVSWRDPKSGSWYVETLDDIFEQWAHSEDLQSLLLRVANAVSVKGIYKQMPGCFNFLRKKLFFKTS
modifications: fused to FKBP12 F36V dimerization domain
notes: chimeric modified Caspase-9 polypeptide

Key:
[1] = test system: 293 cells; experiment: SRα-SEAP assay in 293 cells with FRBl2-tagged CAR and iCaspase-9: rapamycin or rimiducid; type: cell-based, human; conditions: FRB-tagged CAR plus FKBP12-tagged Caspase-9; overnight
Protocol: Two tandem FRB, domains were fused to either either a 1st generation Her2-CAR or to a 1st generation CD19-CAR co-expressing inducibleiCaspase-9. 293 cells were transiently transfected with a constitutive reporter plasmid, SRα-SEAP, along with normalized levels of expression plasmids encoding Her2-CAR-FRBl2, iCaspase-9, Her2-CAR-FRBl2+iCasp9, iC9-CAR(19).FRBl2 (coexpressing both CD19-CAR-FRBl2 and iCaspase9), or control vector. […] After overnight incubation with drugs, SEAP activity was determined. […] This dose-dependent decrease required the presence of both the FRB-tagged CAR and the FKBP12-tagged Caspase-9. […] Moreover, on- or off-target-mediated CAR clustering should increase the sensitivity of killing primarily at the site of scFv engagement.
24 hours following transfection (4.1), 293T cells are split to 96-well plates and incubated with dilutions of dimerizing drugs. Briefly, 100 μL media is added to each well of a 96-well flat-bottom plate. Drugs are diluted in tubes to a concentration 4× the top concentration in the gradient to be place on the plate. […]
24 hours after drug stimulation, 96-well plates are wrapped to prevent evaporation and incubated at 65° C. for 2 hours to inactivate endogenous and serum phosphatases while the heat-stable SeAP reporter remains (3, 12, 14). […] Phosphatase activity is measured by fluorescence with excitation at 355 nm and emission at 460 nm. […]

[2] = test system: F-Casp9M.I.GFPhigh-transduced T cells; experiment: Annexin V/7-AAD staining of iCasp9M GFPhigh T cells after CID; type: cell-based, human; conditions: 100 μM for 1 hour prior to adding CID
Protocol: CID (AP20187; ARIAD Pharmaceuticals) at indicated concentrations was added to transfected 293T cells or transduced CTLs. Adherent and nonadherent cells were harvested and washed with annexin binding buffer (BD Pharmingen, San Jose, Calif.). Cells were stained with annexin-V and 7-amino-actinomycin D (7-AAD) for 15 minutes according to the manufacturer's instructions (BD Pharmingen). Within 1 hour after staining, cells were analyzed by flow cytometry using CellQuest software (Becton Dickinson).
A representative example of 3 separate experiments is shown.
For clinical applications therefore, versions of the expression constructs with selectable markers that allow selection for high copy number, high levels of expression, or both high copy number and high levels of expression may be desirable. […] The dose response remained unchanged for at least 4 weeks after transduction.

[3] = test system: HEK293T/16 cells; experiment: Secreted alkaline phosphatase (SEAP) surrogate killing assay of iCasp9 mutants; type: cell-based, human; conditions: SEAP assay without AP1903; relative to wild type Caspase-9
Protocol: Early passage HEK293T/16 cells (ATCC, Manassas, Va.) were maintained in IMDM, GlutaMAX™ (Life Technologies, Carlsbad, Calif.) supplemented with 10% FBS, 100 U/mL penicillin, and 100 U/mL streptomycin until transfection in a humidified, 37° C., 5% CO2/95% air atmosphere. Cells in logarithmic-phase growth were transiently transfected with 800 ng to 2 μg of expression plasmid encoding iCasp9 mutants and 500 ng of an expression plasmid encoding SRα promoter driven SEAP per million cells in 15-mL conical tubes. […] GeneJammer® Transfection Reagent at a ratio of 3 μl per ug of plasmid DNA was used to transiently transfect HEK293T/16 cells in the absence of antibiotics. 100 μl or 2 mL of the transfection mixture was added to each well in 96-well or 6-well plate, respectively.
Briefly, after 65° C. heat denaturation for 45 minutes to reduce background caused by endogenous (and serum-derived) alkaline phosphatases that are sensitive to heat, 5 μl of supernatants was added to 95 μl of PBS and added to 100 μl of substrate buffer, containing 1 μl of 100 mM 4-methylumbelliferyl phosphate (4-MUP; Sigma, St. Louis, Mo.) re-suspended in 2 M diethanolamine. Hydrolysis of 4-MUP by SEAP produces a fluorescent substrate with excitation/emission (355/460 nm), which can be easily measured. […] 1000-ul of the mixture was seeded onto each well of a 96-well plate. […] For the assay, 4-methylumbelliferyl phosphate substrate was hydrolyzed by SEAP to 4-methylumbelliferon, a metabolite that can be excited with 364 nm and detected with an emission filter of 448 nm. Since SEAP is used as a marker for cell viability, reduced SEAP reading corresponds with increased iCaspase-9 activities.

[4] = test system: PG13 packaging cells; type: cell-based
[5] = test system: primary T cells; experiment: AP1903-dependent cytotoxicity in primary T cells transduced with caspase variants; type: cell-based, human; conditions: AP1903 at Day 0 and day 4
Protocol: The effects of various caspase polypeptides at mostly single copy in primary T cells was assayed. This may reflect more accurately how these suicide genes will be used therapeutically.
Primary T cells from healthy donors (n=6) were transduced with retrovirus encoding mutant or wild-type iCasp9 or iCasp9-D330A, and the ΔCD19 cell surface marker. Following transduction, iCasp9-transduced T cells were purified using CD19-microbeads and a magnetic column.

| Molecule | basal activity, in words [3] | also measured |
| --- | --- | --- |
| CO[C@H]1C[C@@H]2CC[C@@H](C)[C@@](O)(O2)C(=O)C(=O)N2CCCC[C@H]2C(=O)O[C@H]([C@H](C)C[C@@H]2CC[C@@H](O)[C@H](OC)C2)CC(=O)[C@H](C)/C=C(\C)[C@@H](O)[C@@H](OC)C(=O)[C@H](C)C[C@H](C)/C=C/C=C/C=C/1C [Rapamycin] | – | maximal decrease of SEAP activity [1]: ~50% |
| COC(=O)C[C@H](NC(=O)[C@H](C)NC(=O)[C@@H](NC(=O)OCc1ccccc1)C(C)C)C(=O)CF [zVAD-fmk] (Cbz-Val-Ala-Asp(OMe)-CH2F) | – | effect on CID-induced apoptosis [2]: inhibited |
| B1 | lower basal activity | – |
| B2 | less basal activity than wild type Caspase-9 | – |
| B3 | lower basal activity | – |
| B4 | lower basal activity | – |
| B5 | less basal activity than wild type Caspase-9 | – |
| B6 | less basal activity than wild type Caspase-9 | CD19 mean fluorescence intensity of transduced PG13 cells, in words [4]: enhanced CD19 mean fluorescence intensity (MFI); viral titers, in words ([4]; upon HAT media treatment, HT1080 cells): higher viral titers |
| B7 | lower basal activity | – |
| B8 | less basal activity than wild type Caspase-9 | – |
| B9 | – | killing of target T cells within 10 days, in words [5]: indistinguishable from wild type Caspase-9 polypeptide or D330A |
| B10 | less basal activity than wild type Caspase-9 | – |
| B11 | lower basal activity | – |
| B12 | lower basal activity | – |
